In the supplement of paper PMC12764529:
± gives the half width of the 95% confidence interval.

Key:
[1] = folding stability dG unfold from trypsin proteolysis; higher = more stable
Method in brief: (§1)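 K50 was inferred by Bayesian fitting of sequencing counts obtained after protease digestion of designed mini-proteins. Unfolding free energy was derived by comparison with a sequence-predicted unfolded-state K50 and a shared folded-state K50, for each protease or both combined. The mini-proteins were under 80 residues, had no cysteine, were carried in a PA-tagged cDNA display construct, and were kept only if AlphaFold2 dimer inter-PAE exceeded 15.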

[2] = folding stability dG unfold from chymotrypsin proteolysis; higher = more stable
Method in brief: as §1

[3] = folding stability dG unfold (combined trypsin and chymotrypsin); higher = more stable
Method in brief: as §1

| Sequence | folding stability dG unfold [1] [kcal/mol] | folding stability dG unfold [2] [kcal/mol] | folding stability dG unfold [3] [kcal/mol] |
| --- | --- | --- | --- |
| SAGGSMIPLDNIDTIEIYENPKEGKYEAKIYFPSNGKVYVFPEGLLPEIIESTPKIKEIKVIPVPESAGGSA [r2_159_TrMRF] | -1.19 ± 0.71 | 0.362 ± 0.26 | -0.0295 ± 0.25 |
| SDYMPVHKMESDGKRNPNGQHEYEPKMEPVWVPVPPPPPRIRIPPEWREKLKELAEKLGHPITDDDINKISA [r9_487_TrROS] | -0.283 ± 0.19 | 0.0759 ± 0.051 | -0.13 ± 0.31 |
| SAGGRLVRIKVDIYSPGDGEPHEFEFLLHVDANGSVEIYFPNGKRIRIPPNMKVKIKDIEVLDPDQISAGGS [r16_223_TrROS] | 2.56 ± 0.089 | 3.45 ± 0.11 | 3.17 ± 0.14 |
| SAGGSAGGSAFTIHDLKLNKVEVHPDGTVTYHLEVTLPSGEKLKVVVLVDPRKPSLATFYFSSAGGSAGGSA [r18_97_TrMRF] | 2.31 ± 0.2 | 3.31 ± 0.057 | 2.94 ± 0.13 |
| SAGEVELTEDGSLKITETIEVNGLLFKVTVTIDENGNISVSIEKVEVLPPPPPVEIKLEDEEAKKKALKSAG [r5_715_TrROS_Hall] | 0.26 ± 0.28 | 1.61 ± 0.14 | 1.16 ± 0.69 |
| SAGGSAGGSAGGKSKTLRLYNKDTGVAVTVTLNEDGSLSVTVEPLPPPPPVEEKVVVKGSAGGSAGGSAGGS [r10_664_TrROS_Hall] | 0.527 ± 0.071 | 1.37 ± 0.13 | 1.03 ± 0.11 |
| SAGGPPWVRVVDVRIEPVEDGGERRITLTFPPDVTLEEVRERVREMLPPGAEAELTVERVEVRPVLASAGGS [r16_393_JUSTAS] | 1.27 ± 0.016 | 1.56 ± 0.019 | 1.49 ± 0.04 |
| SAMPLDDLPAEQIRELVRSIMRKHGMPPDNVEVDVEVQRPPDGYYYITVDVEMRMNGKERKYKFTIWIPSAG [r14_703_TrROS] | 2.99 ± 0.072 | 4.17 ± 0.05 | 3.75 ± 0.1 |
| SAGGSSGSMSPVLSLFEPGTGVVTYLLKKNDKLYLLVSTGSPGVPPVPSSVSPANLAAGDPVWATAGSAGGS [r16_809_JUSTAS] | -0.924 ± 0.26 | 0.77 ± 0.13 | 0.353 ± 0.1 |
| SAGGSAGGSAGGSKTKAELFKVGDKLILATYHPDTGKVEIFYPDNSVETLPAEEAEKLFSAGGSAGGSAGGS [r10_1140_TrMRF] | 1.02 ± 0.052 | 0.957 ± 0.13 | 1.03 ± 0.14 |
| KPKIKITITFNKETGKITITAVNKDNNVVVKTEFELKDGKLTMKIEVKNKKTNKTYTIEIEIKLLKPGEKLS [r1_404_TrROS_Hall] | 2.58 ± 0.19 | 4.32 ± 0.094 | 3.86 ± 0.32 |
| SAGGMPPENIKEITEVERNPDGMKEITIEMEDPELAKQGNPEQVDQMAEWLQDEFPDRGIPVTIEPGPSAGG [r13_243_TrROS] | 0.514 ± 0.081 | -0.435 ± 0.28 | 0.0457 ± 0.28 |
| KTITIIIPMTPEQIEELAKALAEKLGLSEEEVEVVKVEKIKNEDGELYVKITIKLKETGKEITIIVPLKDLS [r1_21_TrROS_Hall] | 1.76 ± 0.08 | 3.2 ± 0.12 | 2.8 ± 0.12 |
| SAGGMVKLFTWPPGQPEEFAEKLRKLPDVVEVTIEEVDGALRIRIKLKGKDVEVTTDPAGRWSVTVVGSAGG [r13_907_JUSTAS] | 2.15 ± 0.034 | 2.35 ± 0.028 | 2.28 ± 0.048 |
| SAGGSAGLRVRLADGSELSVSPIPDKLRVVVTLPNGARIPIDVEDGELVEIVRDPAVPADFYIEEISAGGSA [r15_709_JUSTAS] | 0.419 ± 0.14 | 1.25 ± 0.043 | 1.06 ± 0.1 |
| SAGGSAGGSAPPLKILRPEATVHPDGGVTVVAELEGGYLVVETVTFDPETGTASSSVEIVPLDSAGGSAGGS [r20_15_TrMRF] | -0.813 ± 0.12 | 1.03 ± 0.015 | 0.705 ± 0.047 |
| SMIKPGDTVTIVLKVKPEDLEKIREAVEELLRELFPDVEVESVEVNPEEENYVVITVRVDGKEITLVIERSA [r9_1079_TrROS_Hall] | 2.78 ± 0.048 | 2.262 ± 0.021 | 2.5 ± 0.041 |
| SASASQTTIEYTVPVPAGTSPDEPLTLTVTLPDKEIPIEVGTLENLPPDATVTITLDTTEPTFTVTLTPSAG [r14_554_JUSTAS] | 1.52 ± 0.051 | -0.451 ± 0.23 | 0.799 ± 0.096 |
| SAGAEVEVVELTDEEIEALAKELNPDVTIEVVVVRVPPPPEKVEVRDPETGETVTLTVTPDGEIRAEKSAGG [r19_70_TrROS_Hall] | 0.624 ± 0.091 | -0.235 ± 0.16 | 0.0774 ± 0.35 |
| SAGGMETIELEIEITDEDGNTYRIRVTIERKDGKLVIKIEVEAETPEERERARELAEELARRLEEELSAGGS [r8_416_TrROS_Hall] | 4.1 ± 0.19 | 5.3 ± 0.35 | 4.94 ± 0.6 |
| SKVKPGEKVEYVEITITVDVKSVEELEKKLRELLGVKEVKVTVTEENGKLTLTIVVKSKEEADKLKELLSSA [r9_764_TrROS_Hall] | 1.22 ± 0.031 | 1.73 ± 0.066 | 1.47 ± 0.16 |

| Sequence | folding stability dG unfold [1] [kcal/mol] | folding stability dG unfold [2] [kcal/mol] | folding stability dG unfold [3] [kcal/mol] |
| --- | --- | --- | --- |
| SAGGSAGGSADELLDKLLNHKWLRDAMEKAPPGMEEIDIELPDGGKIRIRRTPNGGFRLEPSAGGSAGGSAG [r3_124_TrROS] | 1.904 ± 0.019 | 1.48 ± 0.081 | 1.76 ± 0.087 |
| SAGGSAGGSAGGGSVTIEIEFEAKPGEKFTVTIKGFKKVEITEIYPFDGKVRIKVKVTPESAGGSAGGSAGG [r7_292_TrMRF] | 3.18 ± 0.13 | 3.88 ± 0.13 | 3.67 ± 0.13 |
| SAGGSAGGGPKVTVEVTESKVYELEDGSYVAVNTYTVTFEAEGKTVKVTFYRTFPKGFAGGPFSSAGGSAGG [r6_799_TrMRF] | 2.28 ± 0.064 | 2.57 ± 0.14 | 2.42 ± 0.17 |
| SAGGSAGGMVLVLRFPLGEPALIALYDPETGEVHVYDPGTRELLGTFPLPIEDFLELGAEAEPVSAGGSAGG [r6_831_TrMRF] | 0.698 ± 0.051 | 2.2 ± 0.094 | 1.84 ± 0.12 |
| SAGGSAGGSAGGFKLPPGKPIEFPIKHGGEPYPVEIWRDPNKLMIHFPGNNQWIPADDIKSAGGSAGGSAGG [r7_37_TrROS] | -0.828 ± 0.45 | -0.589 ± 0.87 | -0.931 ± 0.58 |
| SAMPKPALTIEIPLPNGQTVRIDVYYDPETGTYTVNVTRTLPNGEPFTRTYTVESPEEAIKNIEVTDFGSAG [r14_749_TrMRF] | 3.29 ± 0.13 | 3.18 ± 0.078 | 3.24 ± 0.12 |
| SAGGSAGGSAKPLTVEEIIKKLNLPPNVEIVDVKVDYGKTENKPIIVLVLKTKDKPYLPVFASAGGSAGGSA [r18_354_TrMRF] | 1.25 ± 0.097 | 1.91 ± 0.065 | 1.61 ± 0.17 |
| SAGGSAGGSAGSMTLLATETFPETGKTVKYYKEGDTIYRVDYSDPKNPVVTELSPSDPLKSAGGSAGGSAGG [r17_145_JUSTAS] | 1.68 ± 0.09 | 2.29 ± 0.054 | 2.12 ± 0.086 |
| SAGGSAGGSAGMKEGEKPKVKIEIDVLIEVDGKLYRVRAEAEINEDGEITIKVEIEELPDSAGGSAGGSAGG [r11_551_TrROS_Hall] | 2.4 ± 0.11 | 3.65 ± 0.11 | 3.3 ± 0.12 |
| SMKPGDWKWIMFRFPDAENMEITIPIPLPPGYRVWFFFMNGERHEIPAGQEIKFKMPPGEPMWMMIWIWKSA [r9_79_TrROS] | 3.66 ± 0.11 | 4.7 ± 0.1 | 4.06 ± 0.26 |
| SAGGSAGKIEIPLPELGEVREEPVPDTVRIEVRFPDGRVLEATVLKDDTIEIREKGTGKLVATLPASAGGSA [r15_656_TrMRF] | 1.44 ± 0.058 | 1.39 ± 0.043 | 1.44 ± 0.12 |
| SAGGKKKKLVIKDKKTNKYYEIENAKEIVKIEKVKGKDGKTYYVIYFKKTKKKIVIKTKEDLEKALKSAGGS [r8_206_TrROS_Hall] | 1.26 ± 0.24 | 1.18 ± 0.38 | 1.23 ± 0.29 |
| SAGGSAGGIKEILKEARENPENAESVTIRIPMEVPVTRYDPDNGEPETHPHPVPGEITIPPDDLSAGGSAGG [r6_560_TrROS] | 0.435 ± 0.019 | 1.16 ± 0.043 | 0.889 ± 0.051 |
| SAMKYTVKLPPGAEPIQPEELAALPYVEVVEVEISDGEDGTRTLTITVSPDVPEENVEKLKEYIEKKLKSAG [r14_421_JUSTAS] | 2.93 ± 0.077 | 3.17 ± 0.043 | 3.12 ± 0.085 |
| SMGVKIEIDKEIIEKAIEEGKTFEADAKIKIEAYNPKTGKKIAEAEKIVKIRLEIEPPKAEPDPETGKPESA [r9_396_TrMRF] | 0.661 ± 0.071 | 0.36 ± 0.066 | 0.633 ± 0.13 |
| SAGGSANPNGKPWVEVEVSFMIPIDDEDIADALGGPPKPGDWLMITVKIRVYPDGNVEIDINLHPMSAGGSA [r15_91_TrROS] | 3.96 ± 0.14 | 3.88 ± 0.22 | 3.95 ± 0.19 |
| SAGGSAGGMTLEIEVNGKKIKIEVIKDKETNRYFVRITVDGKEVLIEADSKEDALKAIKELLKKSAGGSAGG [r6_715_TrROS_Hall] | 2.93 ± 0.059 | 4.42 ± 0.076 | 4.12 ± 0.077 |
| SAGGSMTIVVETPEEVEKAIKALEDELKKKGIKKGDKIKKIKVEKNENGKLTVTIEVDGKKIKIEVSAGGSA [r2_120_TrROS_Hall] | 0.37 ± 0.15 | 2.02 ± 0.25 | 1.63 ± 0.3 |
| SAGGSAGGSAGGKVYFLPDNTVVYELPDGLYLAVTVNENGEPSRTLYRVLSPTEIKPFPLSAGGSAGGSAGG [r7_423_TrMRF] | 1.65 ± 0.024 | 1.66 ± 0.034 | 1.72 ± 0.035 |
| SAGGSAGPSSKPIPLYVLFLEVTKPGGEKLPLVKLVKSPEEALKIAEEIASKGYEVKLVLAPASEISAGGSA [r15_906_TrMRF] | 2.74 ± 0.081 | 2.92 ± 0.07 | 2.88 ± 0.084 |
| SAGGPGAAPTSTTVTVTIHLPMPPDVSDEEAKALAKERIKEEFPPSYTIESITVDPATNVVTATVKVASAGG [r19_81_JUSTAS] | 3.32 ± 0.15 | 2.88 ± 0.1 | 3.11 ± 0.16 |
